The values below come from the nanobody polyreactivity screen of Harvey et al. (2022).

A short description of this series: yeast display, Sf9 membrane polyspecificity reagent, FACS + sequencing; frameworks hold sequencing errors. The procedure, abridged: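 A synthetic nanobody library was expressed on Saccharomyces cerevisiae BJ5465 by galactose induction for 36–48 hours. The library was stained for 1 hour at 4 °C with 10% biotinylated, detergent-solubilized Sf9 membrane reagent and enriched with streptavidin microbeads before FACS. Low and high (top ~1%) gates were set on anti-HA fluorescence for expression and streptavidin fluorescence for reagent binding, and each polyreactivity label reflects the gate of origin.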
With “QVQLVESGGGLVQAGGSLRLSCAASGITFVRYAMGWYRQAPGKERELVAAINFSGGNTYYADSVKGRFTISRDNAKNTVYLQMNSLKPEDTAVYYCAAKRQYKRSRMYYWGQGTQVTVSS”, the “polyreactivity (PSR sort gate)” value is on record as “high polyreactivity”. “QVQLVESGGGLVQAGGSLRLSCAASGITFVYNAMGWYRQAPGKERELVAAIDFGAGSTYYADSVKGRFTISRDNAKNTVYLPMNSLKPEDTAVYYCAAGAARWYWPYDYWGQGTQVTVSS”: the “polyreactivity (PSR sort gate)” value is recorded as “low polyreactivity”. Under “QVQLVESGGGLVQAGGSLRLSCAASGITFWAYAMGWYRPAPGKARELVAAITSGGSTNYADSVKGRFTISRDNAKNTVYLQLNSLKPEDTAVYYCAADWAYYSTALDYWGQGTQVTVSS” stands “low polyreactivity”. With “QVQLVESGGGLVQAGGSLRLSCAASGITFWDYAMGWYRQAPGKERELVAGISTRGGSTYYADSVKGRFTISRDNEKNTVYLQMNSLKPEDTAVYYCATDDPLSQINEQGMDYWGQGTQVTVSS”, the “polyreactivity (PSR sort gate)” value was “low polyreactivity”. To “QVQLVESGGGLVQAGGSLRLSCAASGITFWDYAMGWYRQAPGKERELVAGITSRGGSTYYADSVKGRFTISRDNAKNTVYLQMNSLKPADTGVNSCNAYRLHSRRYYYWGQGTQVTVSS” belongs “low polyreactivity”; to “QVQLVESGGGLVQAGGSLRLSCAASGITFWGYAMGWYRQAPGKEREFVARINWSGGRTYYAESVKGRFTISRDNAKNTVYLQMNSLKPEDTAVYYCAATSLIYCYRTYYYWGQGTQVTVSS”, “high polyreactivity”. To “QVQLVESGGGLVQAGGSLRLSCAASGITFWGYAMGWYRQAPGKERELVAAISKTGGSTYYADSVKGRFTISRDNAKNTVYLQMNSLKPEDTAVYYCNTVTANGDFGYWGQGTQVTVSS” belongs “low polyreactivity”; to “QVQLVESGGGLVQAGGSLRLSCAASGITFWGYVMGWYRQAPGKERELVAAISSSGGRTYYADSVKGRFTISRDNAKNTVYLQMNSLKPEDTAVYYCAARFLYANRYSVDYDYWGQGTQVTVSS”, “high polyreactivity”. To “QVQLVESGGGLVQAGGSLRLSCAASGITFWLYAMGWYRQAPGKERELVAAITSGGSTTYADSVKGRFTISRDNAKNTVFLQMYSLKPEDSAVYYCNAEYQDWFGRLDYWGQGTQVTVSS” belongs “high polyreactivity”; to “QVQLVESGGGLVQAGGSLRLSCAASGITFWLYAMGWYRQAPGKERELVAGIDNGGSTTYADSVKGRFTISRDNAKNTVYLQMNILKPEDTAVYYCAATFEWDPVYPYNGFIYDYWGQGTQVTVSS”, “high polyreactivity”; to “QVQLVESGGGLVQAGGSLRLSCAASGITFWRYAMGWYRQAPGKERELVAAINSGGGTKFADSVKGRFTISRDNAKNTVYLQMNSLKPEDTAVYYCAAKYVFTLHRYDYWGQGTQVTVSS”, “high polyreactivity”.

Regarding “QVQLVESGGGLVQAGGSLRLSCAASGITFWRYAMGWYRQAPGKERELVAAIRWSGSTYADSVKGRFTISRDNAKNTVYLQMNSLKPEDTAVYYCAAYPIGGYHDMDYWGQGTQVTVSS”, the “polyreactivity (PSR sort gate)” value is on record as “high polyreactivity”. Under “QVQLVESGGGLVQAGGSLRLSCAASGITFWYYAMGWYRQAPGKERELVARIRRSGGSTYYADSVKGRFTISRDNAKNTVYLQMNSLKPEDTAVYYCAAEPRWTAVYQGAERFYYWGQGTQVTVSS” stands “high polyreactivity”; under “QVQLVESGGGLVQAGGSLRLSCAASGITFWYYAMGWYRQAPGKERELVAVISRGGSTYYADSVKGRFTISRDNAKNTVYLQMNSLKPEDTAVYYCAADVSVSGYYYWGQGTQVTVSS”, “high polyreactivity”.

“QVQLVESGGGLVQAGGSLRLSCAASGITFYANAMGWYRQAPGKERELVATISYRGGSTYYADSVKGRFTISRDNAKNTVYLQMNSLKPEDTAVYYCAARRRRTSNTRVEHNYWGQGTQVTVSS”: the “polyreactivity (PSR sort gate)” value is “high polyreactivity”. To “QVQLVESGGGLVQAGGSLRLSCAASGITFYANTMGWYRQAPGKERELVAAISGIGGSTYYADSVMGRFAISRDNAKNTVYLQMNSLKPEDTAVYYCNADVYYFLFGTFDYWGQGTQVTVSS” belongs “low polyreactivity”; to “QVQLVESGGGLVQAGGSLRLSCAASGITFYAYAMGWYRQAPGKERELVAAITSSGSSTYYADSVKGRFTISRDNAKNTVYLQMISLKPEDSAVYYCAARRYRSVRNDYWGQGTQVTVSS”, “high polyreactivity”; to “QVQLVESGGGLVQAGGSLRLSCAASGITFYDYAMGWYRQAPGKERELVAAISDSGGITYYADSVKGRFTISRDNAKNTVYLQMNSLKPEDTAVYYCNAKSVRRERYKFDYWGQGTQVTVSS”, “high polyreactivity”. For “QVQLVESGGGLVQAGGSLRLSCAASGITFYDYAMGWYRQAPGKERELVAAISFSGSRTYYADSVKGRFTISRDHAKNTVSLQMNSLKPDDTAVYYCAASQASNYKIYDYWGQGTQVTVSS”, the “polyreactivity (PSR sort gate)” value is listed as “high polyreactivity”.

Turning to “QVQLVESGGGLVQAGGSLRLSCAASGITFYDYDMGWYRQAPGKERELVAAINSGASTSYADSVKGRFTISRDNAKNTVYLQMNSLKPEDTAVYYCNADVRVDYLSGDLDYWGQGTQVTVSS”, the “polyreactivity (PSR sort gate)” value is reported as “low polyreactivity”. To “QVQLVESGGGLVQAGGSLRLSCAASGITFYDYPMGWYRQAPGKERELVAAITSSGGRTYYADSVKGRFTISRDNAKNTVYLQMNSLKPEDTAVYYCAASTYPHEYDYWGQGTQVTVSS” belongs “low polyreactivity”. On to “QVQLVESGGGLVQAGGSLRLSCAASGITFYEYAMGWYRQAPGKEREFVAAIDDGDSSTYYADSVKGRFTISRDNAKNTVYLQMNSLKPEDTAVYYCNADPYYDYSLNWGDYWGQGTQVTVSS”, for which the “polyreactivity (PSR sort gate)” value is given as “low polyreactivity”. Turning to “QVQLVESGGGLVQAGGSLRLSCAASGITFYFNAMGWYRQAPGKERELVAAITFSGSSTYYADSVKGRFTISRDNAKNTVYLQMNSQKPEDSAVYYCAAYLTRYDFRWHTYYYWGLGTQVTVSS”, the “polyreactivity (PSR sort gate)” value is on record as “low polyreactivity”. Regarding “QVQLVESGGGLVQAGGSLRLSCAASGITFYFNAMGWYRQAPGKERELVAANTSGGGSTYYADSVKGRFTISRDNAKNTVYLQRNSLKPEDTAVYYCAAEWSYGGMDYWGQGTQVTVSS”, the “polyreactivity (PSR sort gate)” value is given as “low polyreactivity”. To “QVQLVESGGGLVQAGGSLRLSCAASGITFYGNAMGWYRQAPGKERELVAAIRRGGSTNYADSVKGRFTISRDNAKNTVYLQMNSLKPEDTALYYCAADRYGYTYRNYRVGYWGQGTQVTVSS” belongs “high polyreactivity”; to “QVQLVESGGGLVQAGGSLRLSCAASGITFYGNAMGWYRQAPGKERELVAGISSGGSTSYADSVKGRFTISRDNAKNTVYLQMDSLKPEDTAVYYCAKRWYYGTRYGTSYIRDYWGQGTQVTVSS”, “high polyreactivity”; to “QVQLVESGGGLVQAGGSLRLSCAASGITFYGYAMGWYRQAPGKERELVAAITSGGSTNYADSVKGRFTISRDNAKNTVYLQMNSLKPEDTAVYYCAADLWAYGYYYVGYDYWGQGTQVTVSS”, “low polyreactivity”. To “QVQLVESGGGLVQAGGSLRLSCAASGITFYGYAMGWYRQAPGKERELVAVITPSGSSTYYADSVKGRFTISRDNAKNTVYLQMNSLIPEDTAVYYCNARPGRRSLRSRTYDYWGQGTQVTVSS” belongs “high polyreactivity”; to “QVQLVESGGGLVQAGGSLRLSCAASGITFYGYTMGWYRQAPGKERELVAAITSGGNTYYADSVKGRFTISRDNAKNPVYLQMNCLKPEDTAVYYCAARRYCYTSITWCDYWRQGTQVTVSS”, “high polyreactivity”. To “QVQLVESGGGLVQAGGSLRLSCAASGITFYHYAMGWYRQAPGKERELVAAISSDDNTNYADSVKGRFTISRDNAKNTVYLQMNSLKPEDTAVYYCAAAPWYFYDQYFNAISFGYYYWGQGTQVTVSS” belongs “high polyreactivity”.
